Reference: patent US20240076370A1 (Memorial Sloan Kettering, published 2024)
Numbering of substitutions follows the chain as printed.

B1: ET150-153 scFv (scFv)
scFv: QSVLTQPPSVSAAPGQKVTIPCSGSRSNVGNYYVSWYQQLPGTAPKLLIYDNNKRPSGIPDRFSGSKSGTSATLGITGLQTGDEADYFCGTWDGSLSAHVFGTGTKVTVLGSRGGGGSGGGGSGGGGSLEMAQVQLVQSGSELKKPGASVRVSCTASGYTFTSYYMHWVRQAPGQGLEWMGVINPNAGSTRYAQKFQGRVTMSTDTSTSTAYMDLSSLRSEDTAVYYCARGMYRSLLFYDPWGQGTLVTVSS
notes: also called ET150-3 scFv
B2: ET150-160 scFv (scFv)
scFv: QSALTQPASVSGSPGQSITISCTGTSSDVGGYNYVSWYQQHPGKAPKLMIYDVSKRPSGVSNRFSGSKSGNTASLTISGLQAEDEADYYCSSYTRSSTEVFGGGTKLTVLGSRGGGGSGGGGSGGGGSLEMAEVQLVQSGAEVKKPGASVKVSCKASGYTFTSYYMHWVRQAPGQGLEWMGIINPSGGSTSYAQKFQGRVTMTRDTSTSTVYMELSSLRSEDTAVYYCARGGSKKWSGEKWRRENFDYWGQGTLVTVSS
notes: also called ET150-10 scFv
B3: ET150-161 scFv (scFv)
scFv: SYVLTQPPSASGTPGQRVTISCSGSSSNIGSNTVNWYQQLPGTAPKLLIYRNNQRPSGVPDRFSGSKSGTSASLAISGLRSEDEADYYCAAWDDSLSGLFGTGTKVTVLGSRGGGGSGGGGSGGGGSLEMAQMQLVQSGAEVKKPGASVKVSCKASEYTFTRHILHWVRQAPGQSLEWMGWINPGNGNTKYSQKFQVRVTFTRDTSASTVYMELSSLRSEDTAVYYCARLPDQWGQGTLVTVSS
notes: also called ET150-11 scFv
B4: ET150-162 scFv (scFv)
scFv: QSALTQPPSASGSPGQSVTISCTGTSRDAGGYNYFSWYQQHPGKAPKLLIYEVTKRPSGVPDRFSGSKSGKTASLTVSGLQADDEAVYYCSSYGGSNNFRVFGGGTKLTVLGSRGGGGSGGGGSGGGGSLEMAEVQLVESGGGVVRPGGSLRLSCAASGFTFGDYGMSWVRQAPGKGLEWVSGINWNGGSTGYADSVKGRFTISRDNAKNSLYLQMNSLRAEDTAVYYCARSKQDYWGQGTLVTVSS
notes: also called ET150-12 scFv
B5: ET150-163 scFv (scFv)
scFv: QSVVTQPPSVSGAPGQRVTISCTGSSSNIGAGYDVHWYQQLPGTAPKLLIYGNSNRPSGVPDRFSGSKSGTSASLAITGLQAEDEADYYCQSYDSSLSGSYVFGTGTKLTVLGSRGGGGSGGGGSGGGGSLEMAEVQLVETGGNLVQPGASLRLSCAASGFSFSGTAMHWVRQAPGKGLEWVSTISSTGRSTYYRDSVKGRFTISRDNSKNTLYLQMNSLRGEDTAVYYCARVSFDYWGQGTLVTVSS
notes: also called ET150-13 scFv
B6: ET150-164 scFv (scFv)
scFv: QSALTQPPSASGSPGQSVTISCTGTSSDVGGYNYVSWYQQHPGKAPKLMIYEVSKRPSGVPDRFSGSKSGNTASLTVSGLQAEDEADYYCSSYAGSNTLVFGGGTKLTVLGSRGGGGSGGGGSGGGGSLEMAQMQLVQSGAEVKKPGASVKVSCKASGYTFTSYYMHWVRQAPGQGLEWMGIINPSGGSTSYAQKFQGRVTMTRDTSTSTVYMELSSLRSEDTAVYYCARAGMGMDTWGQGTLVTVSS
notes: also called ET150-14 scFv
B7: ET150-172 scFv (scFv)
scFv: B6 scFv with T190S
notes: also called ET150-22 scFv
B8: ET150-166 scFv (scFv)
scFv: NFMLTQPHSVSESPGKTVSISCTRTSGAIAGAYVQWFQQRPGSAPTTVIYDDNKRPSGVPDRFSGSIDKSSNSASLTISGLKTEDEADYYCQSYDYDSSNVLFGGGTKLTVLGSRGGGGSGGGGSGGGGSLEMAEVQLVESGGGLVQPGGSLRLSCAASGFTFSNYAMSWVRQAPGKGLEWVSAISGSGNTYYADSVKGRFTISRDNSKNTLYLQMNSLRAEDTAVYYCARGSVRYTDIWGQGTLVTVSS
notes: also called ET150-16 scFv
B9: ET150-165 scFv (scFv)
scFv: QSALTQPPSASGSPGQSVTISCTGTSSDIGGYNYVSWYQQHPGKAPKLMIYEVNKRPSGVPDRFSGSKSGNTASLTVSGLQAEDEADYYCASFAGRKTLVFGGGTKLTVLGSRGGGGSGGGGSGGGGSLEMAQVQLVQSGAEVKKPGASVKVSCRASGYTFTAYSLHWVRQAPGQGLEWMGWINPSSGGAVYAQKFQGRVTMTRDTSISTAYMELSGLRSDDTAVYYCARNVGGQADDWGQGTLVTVSS
notes: also called ET150-15 scFv
B10: ET150-167 scFv (scFv)
scFv: B9 scFv with S27T, Q40H, G43S, Q235H
notes: also called ET150-17 scFv
B11: ET150-169 scFv (scFv)
scFv: QSVVTQPPSVSAAPGQKVTISCSGSSSNIGNNYVSWYQQLPGTAPKLLIYDNNKRPSGIPDRFSGSKSGTSATLGITGLQTGDEADYYCGTWDSSLSGVVFGGGTKLTVLGSRGGGGSGGGGSGGGGSLEMAQVQLVQSGGEVKKPGASVKVSCKASGFTFNTYGISWVRQAPGQGLEWMGWISANNGHTKSAQRFQDRVAMATDTSTSTAYMELRSLKFDDTAVYYCARGGYHHQMQRYYKATSVYSDYWGQGTLVTVSS
notes: also called ET150-19 scFv
B12: ET150-173 scFv (scFv)
scFv: QSALTQPASVSGSPGQSITISCTGTSSDVGGYNYVSWYQQSPGKAPRLMIYGVSKRPSGVPDRFSGSKSGNTASLTVSGLQAEDEADYYCSSYAGVNNLMFGGGTKLTVLGSRGGGGSGGGGSGGGGSLEMAQVQLVQSGAEVKKPGASVKVSCKASGYTFTSYYMHWVRQAPGQGLEWMGIINPSGGSTSYAQKFQGRVTMTRDTSTSTVYMELSSLRSEDTAVYYCARDVISGFDSWGQGTLVTVSS
notes: also called ET150-23 scFv
B13: ET150-026 scFv (scFv)
scFv: AELSYELTQPPSASGTPGQRVSISCSGSSSNIGSNTVNWYQQFPGTAPKLLIHSNNQRPSGVPDRFSGSKSGTSASLAISGPQSEDEADYYCAAWDDSVNGYVFGTGTKVTVLGSRGGGGSGGGGSGGGGSLEMAQLQLQESGGGSVQPGGSLRLSCAASGFTFSNYAMSWVRQAPGKGLEWVSAITNSGRSTYYADSVKGRFTISRDNSKNTLSLQMSSLRAEDTAVYYCARVTHRRYGSTFDSRGQGTLVTVSS
notes: also called ET150-176 scFv
B14: ET150-028 scFv (scFv)
scFv: AELQPVLTQPPSASGTPGQRVTISCSGSSSNIGGNTVSWYQQVPGTAPRLLIFRNNQRPPGVPDRFSGSKSGTSASLAISGLRSEDEADYYCAAWDASRQGVFGGGTKLTVLGSRGGGGSGGGGSGGGGSLEMAQVQLVQSGAEVKKPGSSVKVSCKASGGTFRSYAITWVRQAPGQGLEWMGRIIPMLDITNYAQKFQGRVTITADKSTSTAYMELSSLRSEDTAVYYCARTYSRSPFHMEDFWGQGTLVTVSS
notes: also called ET150-178 scFv
B15: ET150-030 scFv (scFv)
scFv: AELQSVLTQPPSVSGAPGQRVTISCTGSSSNIGAGYDVHWYQQLPGRAPKLLIYGNSNRPSGVPDRFSGSKSGTSASLAITGLQAEDEADYYCQSYDSSLRGYVFGTGTKVTVLGSRGGGGSGGGGSGGGGSLEMAQVQLVQSGGGVVQPGRSLRLSCAASGFSFSGTAMHWVRQAPGKGLEWVSTISSTGRSTYYRDSVKGRFTISRDNSKNTLYLQMNSLRGEDTAVYYCARPVSSMTLSIQSDGWGQGTLVTVSS
notes: also called ET150-180 scFv
B16: ET150-031 scFv (scFv)
scFv: AELQSVVTQPPSVSAAPGQRVTISCSGGSSNIGNNYVSWFQQLPRTAPKLLIYDNNKRPSGIPDRFSGSKSGTSAALDITVLQTGDEADYYCGTWDSSLRNWVFGGGTKLTVLGSRGGGGSGGGGSGGGGSLEMAQMQLVQSGAEVKKPGASVKVSCKASGYTFTSYYMHWVRQAPGQGLEWMGIINPSGGSTSYAQKFQGRVTMTRDTSTSTVYMELSSLRSEDTAVYYCARGQKYHSQYSRGGTGGGMTQDMWGQGTLVTVSS
notes: also called ET150-181 scFv
B17: ET150-032 scFv (scFv)
scFv: AELQSVLTQPPSASGSPGQSLTISCTGTSSDVGGYNHVSWYQQYPGKAPKLMIYEVTKRPSGVPDRFSGSKSGNTASLTVSGLQAEDEADYYCSSYAGSAHWVFGGGTKLTVLGSRGGGGSGGGGSGGGGSLEMAEVQLVQSGAEVKKPGASVKVSCKASGYTFSRYYIHWVRQAPGQGLEWMGWMNPNSGNTGYAQKFQGRVTMTRNTSISTAYMELSSLRSEDTAVYYCARGRYHVIDYWGQGTLVTVSS
notes: also called ET150-182 scFv
B18: ET150-033 scFv (scFv)
scFv: AELQAVLTQPPSASGTPGQRVTISCSGSSSNIGSNYVYWYQQLPGTAPKLLIYRNNQRPSGVPDRFSGSKSGTSASLAISGLRSEDEADYYCAAWDDSLSGRVFGTGTKVTVLGSRGGGGSGGGGSGGGGSLEMAQLQLVQSGAEVKKPGSSVKVSCKASGYTFNTYYLHWVRQAPGQGLEWMGRINPNNGGTNYAQKFQGRVTMTRDTSINTAYMELSRLRSDDTAVYYCARSYDYWGQGTLVTVSS
notes: also called ET150-183 scFv
B19: ET150-171 scFv (scFv)
scFv: QSALTQPASVSGSPGQSITISCTGTSSDVGGYNFVSWYQQHPGKAPKVMIYDVSKRPSGISNRFSGSKSGNTASLTISGLQVEDEAEYYCSSYTSTRTVIFAGGTKVTVLGSRGGGGSGGGGSGGGGSLEMAQVQLVQSGAEVKKPGASVKVSCKASGYTFTSYYMHWVRQAPGQGLEWMGIINPSGGSTRYAQKFQGRVTMTRDTSTSTVYMELSSLRSEDTAVYYCARGSSRWGGWTGDYWGQGTLVTVSS
notes: also called ET150-21 scFv
B20: ET150-154 scFv (scFv)
scFv: QAVLTQPPSASGTPGQRVTISCSGSSSNIGSNYVYWYQQLPGTAPKLLIYRNNQRPSGVPDRFSGSKSGTSASLAISGLRSEDEADYYCAAWDDSLSGYVFGTGTKVTVLGSRGGGGSGGGGSGGGGSLEMAQVQLVQSGAEVQRPGASVRVSCKAIAYTFTDYYIHWVRQAPGQGPEWMGWINPKSGRTQYAPKFQDRVTLARETPISTASMELRGLTSDDTAVYYCARVYGYSRWSGFDLWGQGTLVTVSS
notes: also called ET150-4 scFv
B21: ET150-156 scFv (scFv)
scFv: QSALTQPASVSGSPGQSITISCTGTSRDVGGYNYVSWYQQYPGKAPKLMIYEVSKRPSGVSNRFSGSKSGNTASLTISGLQAEDEADYYCSSYTSSSTLDFGTGTKVTVLGSRGGGGSGGGGSGGGGSLEMAQVQLVQSGAEVKQPGASVKVSCQASGYTFTTYYMHWVRQAPGQGLEWMGIINPNGGGTFYAQKFQDRVTMTRDTSTGTVYMELSSLRSDDTAVYYCARGHKVYKSHPTGGYDRWGQGTLVTVSS
notes: also called ET150-6 scFv

What follows are binders tested against T1, human G-protein coupled receptor family C group 5 member D (GPRC5D) (human, UniProt Q9NZD1 1-345) (assay: FACS, scFv phage clones on 3T3 cells overexpressing GPRC5D).
T1 construct: Overexpressed on 3T3 cells in the FACS assays; also called human GPRC5D; 3T3-GPRC5D
T1 sequence (Q9NZD1 whole entry): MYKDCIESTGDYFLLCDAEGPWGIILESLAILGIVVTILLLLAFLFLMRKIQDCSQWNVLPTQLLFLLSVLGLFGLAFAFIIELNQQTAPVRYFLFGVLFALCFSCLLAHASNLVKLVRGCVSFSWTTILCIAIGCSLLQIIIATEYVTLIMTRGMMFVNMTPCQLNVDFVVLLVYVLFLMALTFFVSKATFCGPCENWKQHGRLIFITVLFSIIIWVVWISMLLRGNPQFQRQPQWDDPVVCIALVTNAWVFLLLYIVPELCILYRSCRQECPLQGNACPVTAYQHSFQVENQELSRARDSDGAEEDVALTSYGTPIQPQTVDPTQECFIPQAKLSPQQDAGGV

Binding result, binds:
B1
B2
B3
B4
B5
B6
B7
B8
B9
B10
B11
B12
B13
B14
B15
B16
B17
B18
B19
B20
B21
